This data set addresses CmHRE2-like (CmHRE2L) (UniProt A0AA96PUJ9 1-225). Description: EMSA; LightShift Chemiluminescent EMSA Kit (Thermo Fisher); buffer, salt, pH and temperature not stated. The note with it: protein: recombinant; tags: GST (pGEX4T-1, N-terminal); label: biotin. (A gel shift assay detects complexes by their altered migration in electrophoresis.)

CmHRE2-like (CmHRE2L), sequence (A0AA96PUJ9 entry or part of it): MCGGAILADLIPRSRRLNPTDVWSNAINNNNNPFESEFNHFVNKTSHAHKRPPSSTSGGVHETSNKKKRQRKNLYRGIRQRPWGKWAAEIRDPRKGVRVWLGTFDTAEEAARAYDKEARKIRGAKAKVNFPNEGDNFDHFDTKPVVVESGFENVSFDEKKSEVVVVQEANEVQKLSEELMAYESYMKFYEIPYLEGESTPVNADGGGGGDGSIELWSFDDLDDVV

B1: Biotin-mP, probe with mutated cis-element 3 (dsDNA)
DNA 1: ACCTTCATATGCATGAAAAAAAAATTTTCCACTCAACA
DNA 2: TGTTGAGTGGAAAATTTTTTTTTCATGCATATGAAGGT
B1: the binding result was “no binding”.

The record behind these values is paper PMC11874658, “CmHRE2L-CmACS6 transcriptional cascade negatively regulates waterlogging tolerance in Chrysanthemum”.
